Here are results for four molecules from PMC9520404, “G-quadruplexes formation within the promoter of TEAD4 oncogene and their interaction with Vimentin”.

Series [1] has as its target T1, Vimentin (human, UniProt P08670 1-466). The experiment in a line: EMSA; DNA annealed in 150 mM KCl; 8 uM Vimentin, 500 nM DNA; 5 mM Tris pH 8.4, 150 mM KCl, 1 h at room temperature; 1.5% agarose in 1x TBE + 10 mM KCl, run at 4 C. Conditions: protein: recombinant; parallel G4-repeat after annealing in 150 mM KCl. For orientation: In EMSA bound probe runs differently from free probe, usually more slowly.

The target of series [2] is T1, Vimentin. Nature of the series: EMSA; DNA annealed in 150 mM KCl; no free DNA left; 8 uM Vimentin, 500 nM DNA; 5 mM Tris pH 8.4, 150 mM KCl, 1 h at room temperature; 1.5% agarose in 1x TBE + 10 mM KCl, run at 4 C. Conditions: protein: recombinant; parallel G4-repeat.
Series [3] has as its target T1, Vimentin. Nature of the series: EMSA; 150 mM KCl; 8 uM Vimentin, 500 nM DNA; 5 mM Tris pH 8.4, 150 mM KCl, 1 h at room temperature; 1.5% agarose in 1x TBE + 10 mM KCl, run at 4 C. Conditions: protein: recombinant.

T1 sequence (P08670 whole entry): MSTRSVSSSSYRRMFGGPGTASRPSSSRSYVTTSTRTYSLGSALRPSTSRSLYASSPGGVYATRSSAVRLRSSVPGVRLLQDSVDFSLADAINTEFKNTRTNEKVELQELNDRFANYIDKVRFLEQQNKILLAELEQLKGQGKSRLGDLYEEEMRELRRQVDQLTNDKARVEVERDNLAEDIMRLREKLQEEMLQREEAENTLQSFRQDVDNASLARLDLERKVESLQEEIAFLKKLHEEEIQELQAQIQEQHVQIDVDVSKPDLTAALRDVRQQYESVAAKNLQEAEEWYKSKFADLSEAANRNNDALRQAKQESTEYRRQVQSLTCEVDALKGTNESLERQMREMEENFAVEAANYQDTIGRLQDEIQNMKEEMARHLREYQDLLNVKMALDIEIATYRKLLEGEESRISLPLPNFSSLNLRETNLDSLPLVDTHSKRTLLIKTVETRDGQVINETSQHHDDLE

As to CGGGCGGGCGAGGGGCCGGGCCGCCGGGGCGGGGCGGGGCCGGGC (structured_DNA) [TEAD4-full], the binding result in the series with Vimentin [1] is listed as “binds”.
On to CGGGCGGGCGAGGGGCCGGGTTGTTGGGGCGGGGCGGGGCCGGGC (structured_DNA) [TEAD4-full-2TT], for which the binding result with Vimentin [2] is listed as “binds”.
Regarding CGGGGCGGGGCGGGGCCGGGC (structured_DNA) [TEAD4-far], in the series with Vimentin [3] (G4, parallel and antiparallel components), the binding result was “no binding”.
With CGGGCGGGCGAGGGGCCGGGC (structured_DNA) [TEAD4-near], the binding result with Vimentin [3] (intramolecular G4, mainly antiparallel) was “no binding”.
